Results from article PMC11147780.

Assays:
[1] = molecular target: 10E8-iGL3 antibody (fully germline-reverted 10E8); experiment: SPR; settings: chain shown with the change;; read off a plot
[2] = molecular target: 10E8 unmutated common ancestor antibody; experiment: SPR; settings: chain shown with the change;; read off a plot

| Binder | Kd [1] [nM] | Kd [2] [nM] |
| --- | --- | --- |
| MPER (scaffold without germline-targeting mutations) 10E8-GT12 (substitutions not printed in the panel; sequence in Extended Data Fig. 1h) (protein) ETGNVTQEDIIRALASPLIKDGMVDEDFAEKVIENESRYPSGLQAKGVGFAIPHVLGDYVRDNAISVGILDKPVNFSEWYQSPDPVPVRVVFMLAIRTWDDITNVMNWIKDVVLDEEFMKRLLNMSDEEIYRQIYTRISKAPNLSGINFSREYVRHLNGS | 1800 | 180 |
| 10E8-GT9.2 epitope scaffold P41Q (protein) EVTQEDIIRALASPLIKDGMVDEDFAEYVIEREKRSPTGLQVKGVGVAIPHTLGEYVRDNAISVGILDKPVNFEGWYQSPDPVPVRVVFMLAGRTWDDIVNVLKWIKDVILDEEFMKRLLTMSDEEIYRQIYTRISKAPGMRGIHFKREYVRHLG | 8000 |  |
| MPER (scaffold without germline-targeting mutations) 10E8-GT11 (substitutions not printed in the panel; sequence in Extended Data Fig. 1h) (protein) VTQEDIIRALASPLIKDGMVDEDFAEKVIEQESRYPTGLQAKGVGVAIPHTLGDYVRDNAISVGILDKPVNFEGWYQSPDPVPVRVVFMLAIRTWDDIVNVLNWIKDVILDEEFMKRLLTMSDEEIYRQIYTRISKAPQLSGIHFKREYVRHLG | 20000 | 1400 |
| MPER (scaffold without germline-targeting mutations) 10E8-GT10.2 (substitutions not printed in the panel; sequence in Extended Data Fig. 1h) (protein) NVTQEDIIRALASPLIKDGMVDEDFAEYVIARENRSPTGLQAKGVGVAIPHTLGDYVRDNAISVGILDKPVNFSGWYQSPDPVPVRVVFMLAGRTWDDIVIVLKWIKDVILDEEFMKRLLNMSDEEIYRQIYTRISKAPNLSGINFSREYVRHLN | 11000 | 38 |
